Consider 4 molecules from patent publication US20100022456A1 (Novo Nordisk, published 2010).

The target of this assay is T1, Ser-hPRLR(1-210) (human, UniProt P16471 25-234).
T1 construct: range 1-210; Amine-coupled to a CM5 chip in the SPR assay; also called soluble form of the receptor; PRL receptor
T1 sequence: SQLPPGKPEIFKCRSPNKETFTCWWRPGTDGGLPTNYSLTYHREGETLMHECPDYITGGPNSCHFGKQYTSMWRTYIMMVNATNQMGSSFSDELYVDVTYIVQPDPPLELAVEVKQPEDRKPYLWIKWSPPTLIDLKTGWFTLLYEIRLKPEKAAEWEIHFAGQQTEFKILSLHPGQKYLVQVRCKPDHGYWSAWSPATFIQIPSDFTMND
Kind of assay: SPR (Biacore T100), receptor amine-coupled to CM5 chip, ligand injected. Here is the method: The soluble form of the receptor (10 μg/ml in 10 mM sodium acetate, pH 4.0) was injected into a Biacore T100 instrument and coupled to a CM5 sensor chip by amine coupling chemistry. The immobilized level was about 500 RUs of coupled receptor. […] Regeneration was accomplished with 4.5 M MgCl₂ for 90 sec with a flow rate of 30 μl/min between runs.
On the technique in general: In SPR one partner is held on a chip, and binding of the other changes the refractive index at the surface.

Where a chain is given by its changes, count along the chain named. Names and notes keep the numbering of the source.

As usually defined, the Kd is a measure of binding affinity in units of concentration. The low end stands for higher affinity, the high end for lower affinity.

B1: Disulfide bridged PRL 12-199 Q12S E128C dimer (ligand)
chain: SVTLRDLFDRAVVLSHYIHNLSSEMFSEFDKRYTHGRGFITKAINSCHTSSLATPEDKEQAQQMNQKDFLSLIVSILRSWNEPLYHLVTEVRGMQEAPEAILSKAVEIEEQTKRLLCGMELIVSQVHPETKENEIYPVWSGLPSLQMADEESRLSAYYNLLHCLRRDSHKIDNYLKLLKCRIIHNNNC
modifications: intermolecular disulfide bridge between Cys 128 of the two monomers
notes: also called PRL dimer 1; 0033
The molecule B1 returned a Kd of 6 nM.

B2: Disulfide bridged PRL 12-199 Q12S S61A E128C dimer (ligand)
chain: B1 chain with S50A
modifications: intermolecular disulfide bridge between Cys 128 of the two monomers
B2 yielded a Kd of 3 nM.

B3: Disulfide bridged PRL 12-199 Q12S R125C dimer (ligand)
chain: B1 chain with R114C, C117E
modifications: intermolecular disulfide bridge between Cys 125 of the two monomers
The molecule B3 gave a Kd of 20 nM.

B4: PRL(12-199) Q12S G129R (ligand)
chain: B1 chain with C117E, G118R
notes: Monomeric prolactin receptor antagonist analogue; also called PRL G129R analog
In turn, B4 had a Kd of 30 nM.
